Laboratory results published in paper PMC7422855.

Target: human n-Glyceraldehyde-3-phosphate dehydrogenase (human) (UniProt P04406)
Experiment: SEC-MALS; Superdex S200 10/300 in 20 mM HEPES pH 7.5, 100 mM NaCl, 1 mM TCEP; 18-angle MALS detector with differential refractive index detector

## human n-Glyceraldehyde-3-phosphate dehydrogenase, P04406 1-335 (enzyme; Cys152 partially oxidised to cysteine S-sulfonic acid (average occupancy 0.31±0.17 over 20 copies in crystal forms A, C and D; not significant in crystal form B); Cys152 partially oxidised to cysteine S-sulfonic acid (average occupancy 0.31±0.17 over 20 copies in crystal forms A, C and D; not significant in crystal form B); other documents disagree on this pair)
  stoichiometry N: 4
